Assay results from US20220135701A1 (Genentech, published 2022).

Legend:
[1] = biological target: T1, human MerTK on human macrophages (human, UniProt Q12866 21-999); assay: cell-based or functional assay
T1 sequence: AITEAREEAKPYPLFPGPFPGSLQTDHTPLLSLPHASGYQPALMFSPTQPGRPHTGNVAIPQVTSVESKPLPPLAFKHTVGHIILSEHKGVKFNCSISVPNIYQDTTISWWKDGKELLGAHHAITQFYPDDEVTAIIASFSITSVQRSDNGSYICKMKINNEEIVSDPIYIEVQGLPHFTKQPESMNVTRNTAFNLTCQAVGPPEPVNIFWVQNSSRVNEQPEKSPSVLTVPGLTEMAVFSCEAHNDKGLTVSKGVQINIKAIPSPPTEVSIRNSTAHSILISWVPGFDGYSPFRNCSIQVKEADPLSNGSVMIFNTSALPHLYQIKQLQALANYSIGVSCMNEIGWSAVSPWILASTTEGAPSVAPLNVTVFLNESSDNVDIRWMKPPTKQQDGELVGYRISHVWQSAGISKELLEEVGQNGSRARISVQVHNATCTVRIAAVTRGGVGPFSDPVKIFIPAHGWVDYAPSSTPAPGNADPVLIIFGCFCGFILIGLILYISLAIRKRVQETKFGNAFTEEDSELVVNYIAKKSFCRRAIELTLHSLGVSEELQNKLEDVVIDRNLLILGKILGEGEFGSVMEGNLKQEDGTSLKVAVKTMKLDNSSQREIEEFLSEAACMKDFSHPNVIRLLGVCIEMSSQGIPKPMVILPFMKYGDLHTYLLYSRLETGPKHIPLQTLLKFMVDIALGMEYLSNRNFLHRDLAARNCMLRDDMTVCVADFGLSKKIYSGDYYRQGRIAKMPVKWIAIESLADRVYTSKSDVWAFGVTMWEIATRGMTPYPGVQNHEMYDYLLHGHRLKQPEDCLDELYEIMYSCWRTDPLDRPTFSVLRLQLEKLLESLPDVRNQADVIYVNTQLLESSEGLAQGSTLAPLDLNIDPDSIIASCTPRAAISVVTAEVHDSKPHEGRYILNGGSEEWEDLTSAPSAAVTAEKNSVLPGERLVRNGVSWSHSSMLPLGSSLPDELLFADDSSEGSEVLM

[2] = biological target: T2, rat MerTK (rat, UniProt P57097 23-496, limits assumed); assay: SPR BIAcore T200, Ab captured, 37C
T2 construct: Soluble analyte in SPR
T2 sequence (looked up): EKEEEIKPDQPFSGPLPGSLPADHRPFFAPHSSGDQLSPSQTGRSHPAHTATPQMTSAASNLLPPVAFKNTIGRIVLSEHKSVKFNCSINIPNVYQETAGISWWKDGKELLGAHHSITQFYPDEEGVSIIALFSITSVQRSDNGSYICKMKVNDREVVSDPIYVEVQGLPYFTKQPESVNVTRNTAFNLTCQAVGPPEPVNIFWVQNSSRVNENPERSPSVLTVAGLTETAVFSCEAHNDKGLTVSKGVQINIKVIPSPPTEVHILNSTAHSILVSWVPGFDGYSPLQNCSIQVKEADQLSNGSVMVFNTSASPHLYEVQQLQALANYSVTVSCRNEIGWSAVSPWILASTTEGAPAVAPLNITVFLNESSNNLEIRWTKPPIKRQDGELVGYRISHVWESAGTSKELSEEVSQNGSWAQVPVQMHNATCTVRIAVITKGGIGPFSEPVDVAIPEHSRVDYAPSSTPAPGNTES
Experimental: (§1) Each rabbit and humanized antibody was subjected to a binding assay to determine its affinity to MerTK derived from various species.
(§2) All binding affinity determinations were obtained using Surface Plasmon Resonance (SPR) measurements from a BIAcore™-T200 instrument. Briefly, each rabbit or humanized antibody was captured to achieve approximately 100 RU (Response Units). Then, 3-fold serial dilutions of MerTK from various species (0.4 nM to 100 nM) diluted in HBS-EP buffer (0.01M HEPES pH 7.4, 0.15M NaCl, 3 mM EDTA and 0.05% v/v surfactant P20) was injected into the BIAcore™-T200 instrument at 25° C. or 37° C. with a flow rate of 30 μl/min. Association rates (kₒₙ) and dissociation rates (koff) were calculated using a simple one-to-one Langmuir binding model (BIAcore T200 evaluation software version 2.0). The equilibrium dissociation constant (KD) was calculated as the ratio koff/kₒₙ.

[3] = biological target: T3, human MerTK (human, UniProt Q12866 26-499); assay: SPR BIAcore T200, Ab captured, 37C
T3 construct: also called HuMER
T3 sequence: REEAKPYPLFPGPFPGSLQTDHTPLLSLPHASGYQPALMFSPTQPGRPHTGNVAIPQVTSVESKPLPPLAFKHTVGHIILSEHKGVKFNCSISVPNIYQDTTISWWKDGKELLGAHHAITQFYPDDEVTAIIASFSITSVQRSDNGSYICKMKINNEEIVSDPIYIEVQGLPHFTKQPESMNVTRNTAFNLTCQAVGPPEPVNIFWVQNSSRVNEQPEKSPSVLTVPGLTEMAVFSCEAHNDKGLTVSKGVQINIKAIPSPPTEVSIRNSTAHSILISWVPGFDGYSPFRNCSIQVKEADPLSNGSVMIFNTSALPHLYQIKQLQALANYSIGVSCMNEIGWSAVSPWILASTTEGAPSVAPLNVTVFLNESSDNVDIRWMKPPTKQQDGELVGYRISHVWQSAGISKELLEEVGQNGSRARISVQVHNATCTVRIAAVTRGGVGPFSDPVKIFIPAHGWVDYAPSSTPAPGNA
Experimental: as §1, §2

[4] = biological target: T4, mouse MerTK (mouse, UniProt Q60805 23-496); assay: SPR BIAcore T200, Ab captured, 37C
T4 construct: also called MuMER
T4 sequence (looked up): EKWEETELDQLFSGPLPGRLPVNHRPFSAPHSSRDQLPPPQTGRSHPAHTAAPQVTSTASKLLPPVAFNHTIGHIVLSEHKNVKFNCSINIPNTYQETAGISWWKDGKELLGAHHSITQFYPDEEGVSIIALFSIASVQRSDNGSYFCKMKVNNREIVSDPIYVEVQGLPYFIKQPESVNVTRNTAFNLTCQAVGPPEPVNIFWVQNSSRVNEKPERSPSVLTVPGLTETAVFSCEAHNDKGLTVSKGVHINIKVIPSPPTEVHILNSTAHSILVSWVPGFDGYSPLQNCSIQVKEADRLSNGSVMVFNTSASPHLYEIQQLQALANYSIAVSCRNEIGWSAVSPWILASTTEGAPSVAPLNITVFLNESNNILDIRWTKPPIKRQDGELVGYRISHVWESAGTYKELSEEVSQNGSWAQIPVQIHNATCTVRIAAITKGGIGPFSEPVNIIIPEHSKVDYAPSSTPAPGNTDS
Experimental: as §1, §2

[5] = biological target: T5, cynomolgus monkey MerTK (cynomolgus monkey, UniProt A0A2K5V1H9 32-505); assay: SPR BIAcore T200, Ab captured, 37C
T5 construct: Soluble analyte in SPR; also called Cyno MerTK
T5 sequence: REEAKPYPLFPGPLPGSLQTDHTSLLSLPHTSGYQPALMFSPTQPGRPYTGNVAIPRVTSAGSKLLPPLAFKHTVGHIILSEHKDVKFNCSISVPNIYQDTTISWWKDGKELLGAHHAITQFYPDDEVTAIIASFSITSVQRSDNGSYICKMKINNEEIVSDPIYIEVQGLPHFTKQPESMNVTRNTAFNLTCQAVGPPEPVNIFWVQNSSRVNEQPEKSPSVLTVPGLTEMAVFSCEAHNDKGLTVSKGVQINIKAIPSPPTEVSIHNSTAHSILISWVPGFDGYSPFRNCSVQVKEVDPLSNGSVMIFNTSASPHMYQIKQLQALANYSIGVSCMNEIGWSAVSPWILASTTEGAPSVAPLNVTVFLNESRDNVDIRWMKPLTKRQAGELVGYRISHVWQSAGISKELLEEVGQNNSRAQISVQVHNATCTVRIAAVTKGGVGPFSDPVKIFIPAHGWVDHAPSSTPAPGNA
Experimental: as §1, §2

B1: h9E3.FN.v16 (antibody, V domains shown)
VH: EVQLVESGGGLIQPGGSLRLSCAASGFSLSSNAMSWVRQAPGKGLEWVSIISSSGSTYSASWAKGRFTISKDNSKNTLYLQMNSLRAEDTAVYYCARVGFFVGYGAYDYGIIHRLDLWGQGTLVTVSS
VL: DIQLTQSPSTLSASVGDRVTITCQSSKSIYNNNWLSWYQQKPGKPPKLLIYDASDLASGVPSRFSGSGSGTEFTLTISSLQPDDFATYYCAGGYSGDSDYAFGGGTKVEIK
notes: Humanized, human IgG1; also called 9E3.FN Humanized polished mAb
With B1 the “IC50 (nM), efferocytosis by human macrophages, Average (3 Donors)” value [1] was 1.02 nM, the “IC50 (nM), efferocytosis by human macrophages, Donor A” value [1] was 0.59 nM and the “IC50 (nM), efferocytosis by human macrophages, Donor C” value [1] was 1.5 nM. For the same binder, the “Max Inhibition (%), efferocytosis by human macrophages, Average (3 Donors)” value [1] was 57%, the “Max Inhibition (%), efferocytosis by human macrophages, Donor A” value [1] was 58% and the “Max Inhibition (%), efferocytosis by human macrophages, Donor C” value [1] was 55%. For the same binder, the Kd [2] was 3 nM, the Kd [3] was 5.8 nM and the Kd [4] was 1.1 nM. For the same binder, the Kd [5] was 2.5 nM.
